{
  "source": "the supplement of paper PMC9112550",
  "about": "“Optimization of the antimicrobial peptide Bac7 by deep mutational scanning” (BMC Biology, 2022);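 note: peptides expressed intracellularly from a pBAD plasmid library in pooled LB shake-flask culture, induced with 0.3% L-arabinose, DNA abundance read by NGS, three biological replicates, DESeq2 with apeglm shrinkage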",
  "data": [
    {"tested_on": "Escherichia coli TOP10", "experiment": "shrunken log2 fold change of peptide-encoding DNA abundance (4.5 h post-induction vs induction); higher = less antimicrobial activity (less host growth inhibition)", "settings": "time post-induction: 4.5 h; library: site-saturation at positions 5, 18, 19, 20", "values": [
      {"sequence": "RRIRIRPPRLPRPRPRPCTTPRP", "shrunken log2 fold change": -0.543},
      {"sequence": "RRIRVRPPRLPRPRPRPENDPRP", "shrunken log2 fold change": -0.0879},
      {"sequence": "RRIRVRPPRLPRPRPRPENGPRP", "shrunken log2 fold change": -0.158},
      {"sequence": "RRIRVRPPRLPRPRPRPHGRPRP", "shrunken log2 fold change": -0.0651},
      {"sequence": "RRIRLRPPRLPRPRPRPCYPPRP", "shrunken log2 fold change": -0.661},
      {"sequence": "RRIRVRPPRLPRPRPRPRNDPRP", "shrunken log2 fold change": -0.00857},
      {"sequence": "RRIRPRPPRLPRPRPRPSNWPRP", "shrunken log2 fold change": -0.184},
      {"sequence": "RRIRHRPPRLPRPRPRPICCPRP", "shrunken log2 fold change": 0.055},
      {"sequence": "RRIRFRPPRLPRPRPRPHTGPRP", "shrunken log2 fold change": -0.411},
      {"sequence": "RRIRGRPPRLPRPRPRPIRAPRP", "shrunken log2 fold change": 0.602},
      {"sequence": "RRIRARPPRLPRPRPRPGYAPRP", "shrunken log2 fold change": 0.0374},
      {"sequence": "RRIRMRPPRLPRPRPRPVKFPRP", "shrunken log2 fold change": 0.0501},
      {"sequence": "RRIRLRPPRLPRPRPRPRLGPRP", "shrunken log2 fold change": 0.518},
      {"sequence": "RRIRRRPPRLPRPRPRPFCTPRP", "shrunken log2 fold change": -0.13},
      {"sequence": "RRIRWRPPRLPRPRPRPCTSPRP", "shrunken log2 fold change": -0.174},
      {"sequence": "RRIRERPPRLPRPRPRPIRGPRP", "shrunken log2 fold change": 0.0978},
      {"sequence": "RRIRCRPPRLPRPRPRPKMNPRP", "shrunken log2 fold change": -0.415},
      {"sequence": "RRIRPRPPRLPRPRPRPRMRPRP", "shrunken log2 fold change": 0.92},
      {"sequence": "RRIRDRPPRLPRPRPRPGIAPRP", "shrunken log2 fold change": 0.37},
      {"sequence": "RRIRARPPRLPRPRPRPVGMPRP", "shrunken log2 fold change": 0.376},
      {"sequence": "RRIRPRPPRLPRPRPRPVRFPRP", "shrunken log2 fold change": 0.28},
      {"sequence": "RRIRKRPPRLPRPRPRPSVHPRP", "shrunken log2 fold change": -0.118},
      {"sequence": "RRIRKRPPRLPRPRPRPPFGPRP", "shrunken log2 fold change": 0.715},
      {"sequence": "RRIRQRPPRLPRPRPRPYVSPRP", "shrunken log2 fold change": -0.0823},
      {"sequence": "RRIRTRPPRLPRPRPRPTITPRP", "shrunken log2 fold change": 0.184},
      {"sequence": "RRIRNRPPRLPRPRPRPMEYPRP", "shrunken log2 fold change": -0.0389},
      {"sequence": "RRIRIRPPRLPRPRPRPANKPRP", "shrunken log2 fold change": -0.222},
      {"sequence": "RRIRCRPPRLPRPRPRPKNWPRP", "shrunken log2 fold change": 0.331},
      {"sequence": "RRIRMRPPRLPRPRPRPHQFPRP", "shrunken log2 fold change": -0.0236},
      {"sequence": "RRIRARPPRLPRPRPRPQQQPRP", "shrunken log2 fold change": 0.946},
      {"sequence": "RRIRRRPPRLPRPRPRPLHNPRP", "shrunken log2 fold change": 0.188},
      {"sequence": "RRIRNRPPRLPRPRPRPTLRPRP", "shrunken log2 fold change": 0.334},
      {"sequence": "RRIRHRPPRLPRPRPRPNPQPRP", "shrunken log2 fold change": -0.00216},
      {"sequence": "RRIRFRPPRLPRPRPRPHQDPRP", "shrunken log2 fold change": -0.0339},
      {"sequence": "RRIRGRPPRLPRPRPRPGWCPRP", "shrunken log2 fold change": 0.484},
      {"sequence": "RRIRMRPPRLPRPRPRPSFMPRP", "shrunken log2 fold change": 0.0821},
      {"sequence": "RRIRCRPPRLPRPRPRPMKKPRP", "shrunken log2 fold change": 0.0602},
      {"sequence": "RRIRNRPPRLPRPRPRPFTSPRP", "shrunken log2 fold change": -0.0528},
      {"sequence": "RRIRKRPPRLPRPRPRPEQYPRP", "shrunken log2 fold change": 0.104},
      {"sequence": "RRIRYRPPRLPRPRPRPHGEPRP", "shrunken log2 fold change": 0.0796},
      {"sequence": "RRIRFRPPRLPRPRPRPGFWPRP", "shrunken log2 fold change": 0.24},
      {"sequence": "RRIRNRPPRLPRPRPRPTCCPRP", "shrunken log2 fold change": -0.0383},
      {"sequence": "RRIRFRPPRLPRPRPRPGAEPRP", "shrunken log2 fold change": 0.286},
      {"sequence": "RRIRPRPPRLPRPRPRPLHIPRP", "shrunken log2 fold change": 0.656},
      {"sequence": "RRIRARPPRLPRPRPRPTVNPRP", "shrunken log2 fold change": -0.0152},
      {"sequence": "RRIRPRPPRLPRPRPRPPHCPRP", "shrunken log2 fold change": 0.388},
      {"sequence": "RRIRFRPPRLPRPRPRPFPTPRP", "shrunken log2 fold change": -0.0582},
      {"sequence": "RRIRIRPPRLPRPRPRPIHFPRP", "shrunken log2 fold change": -0.0704},
      {"sequence": "RRIRIRPPRLPRPRPRPNQYPRP", "shrunken log2 fold change": -0.681},
      {"sequence": "RRIRCRPPRLPRPRPRPPVPPRP", "shrunken log2 fold change": 0.587},
      {"sequence": "RRIRKRPPRLPRPRPRPHHQPRP", "shrunken log2 fold change": 0.00598},
      {"sequence": "RRIRHRPPRLPRPRPRPQAGPRP", "shrunken log2 fold change": -0.0176},
      {"sequence": "RRIRVRPPRLPRPRPRPIDIPRP", "shrunken log2 fold change": -0.11},
      {"sequence": "RRIRYRPPRLPRPRPRPWWIPRP", "shrunken log2 fold change": -0.00327},
      {"sequence": "RRIRIRPPRLPRPRPRPDCNPRP", "shrunken log2 fold change": -0.164},
      {"sequence": "RRIRQRPPRLPRPRPRPKATPRP", "shrunken log2 fold change": 0.18},
      {"sequence": "RRIRHRPPRLPRPRPRPTPFPRP", "shrunken log2 fold change": 0.177},
      {"sequence": "RRIRHRPPRLPRPRPRPDMHPRP", "shrunken log2 fold change": -0.329},
      {"sequence": "RRIRFRPPRLPRPRPRPSEIPRP", "shrunken log2 fold change": -0.345},
      {"sequence": "RRIRQRPPRLPRPRPRPQCNPRP", "shrunken log2 fold change": -0.0983},
      {"sequence": "RRIRHRPPRLPRPRPRPKAKPRP", "shrunken log2 fold change": 0.00599},
      {"sequence": "RRIRYRPPRLPRPRPRPAHIPRP", "shrunken log2 fold change": -0.467},
      {"sequence": "RRIRGRPPRLPRPRPRPFQYPRP", "shrunken log2 fold change": 0.105},
      {"sequence": "RRIRARPPRLPRPRPRPNLYPRP", "shrunken log2 fold change": -0.345},
      {"sequence": "RRIRLRPPRLPRPRPRPTLQPRP", "shrunken log2 fold change": 0.0553},
      {"sequence": "RRIRARPPRLPRPRPRPHNHPRP", "shrunken log2 fold change": -0.436},
      {"sequence": "RRIRVRPPRLPRPRPRPFHDPRP", "shrunken log2 fold change": -0.0143},
      {"sequence": "RRIRKRPPRLPRPRPRPNVGPRP", "shrunken log2 fold change": -0.0151},
      {"sequence": "RRIRARPPRLPRPRPRPCRLPRP", "shrunken log2 fold change": -0.0461},
      {"sequence": "RRIRRRPPRLPRPRPRPLQQPRP", "shrunken log2 fold change": 0.0366},
      {"sequence": "RRIRWRPPRLPRPRPRPNMCPRP", "shrunken log2 fold change": -0.0387},
      {"sequence": "RRIRDRPPRLPRPRPRPYVKPRP", "shrunken log2 fold change": -0.313},
      {"sequence": "RRIRARPPRLPRPRPRPPSTPRP", "shrunken log2 fold change": 0.563},
      {"sequence": "RRIRHRPPRLPRPRPRPWCDPRP", "shrunken log2 fold change": -0.559},
      {"sequence": "RRIRCRPPRLPRPRPRPHFQPRP", "shrunken log2 fold change": -0.511}
    ]}
  ]
}
